For the assay, the target named is T1, Recombinant human TpoR extracellular domain D1-D4 with mature N-glycans (human, UniProt P40238 26-489, mature N-glycans (4 N-glycans on the ECD)).
T1 construct: thrombopoietin receptor (TpoR), human, extracellular domain D1-D4, starts at Q26 and ends at T489; details in Supplementary Methods; also called TpoR D1-D4; hTpoR D1-D4; source: Schneider S2 cells, purified; not shown: His tag, C-terminal, kept
T1 sequence (looked up): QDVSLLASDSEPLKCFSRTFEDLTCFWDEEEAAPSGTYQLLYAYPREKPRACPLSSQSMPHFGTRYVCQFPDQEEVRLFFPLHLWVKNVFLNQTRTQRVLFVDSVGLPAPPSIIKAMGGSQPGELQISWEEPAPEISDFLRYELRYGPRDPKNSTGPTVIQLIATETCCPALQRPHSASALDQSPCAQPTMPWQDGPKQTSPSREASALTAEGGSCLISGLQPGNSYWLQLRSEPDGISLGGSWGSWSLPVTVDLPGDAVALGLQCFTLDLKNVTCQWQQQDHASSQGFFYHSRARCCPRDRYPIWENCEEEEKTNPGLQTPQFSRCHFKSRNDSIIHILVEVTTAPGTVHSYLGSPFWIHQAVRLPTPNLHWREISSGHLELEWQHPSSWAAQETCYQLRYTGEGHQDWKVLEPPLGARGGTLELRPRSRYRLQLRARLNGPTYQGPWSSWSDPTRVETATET
The assay is described as follows: MST; CALR del52 labelled with RED-NHS at 20 nM; label-free TpoR D1-D4 titrated 0.15 nM to 5 μM; Tris-based MST buffer with 0.01% Tween 20; Monolith NT.115, 40% LED, medium MST power. The conditions noted are these: both partners purified.

In general, Kd refers to the constant that tells how readily two partners part at equilibrium.

B1: Recombinant human CALR del52 (natural protein)
chain: EPAVYFKEQFLDGDGWTSRWIESKHKSDFGKFVLSSGKFYGDEEKDKGLQTSQDARFYALSASFEPFSNKGQTLVVQFTVKHEQNIDCGGGYVKLFPNSLDQTDMHGDSEYNIMFGPDICGPGTKKVHVIFNYKGKNVLINKDIRSKDDEFTHLYTLIVRPDNTYEVKIDNSQVESGSLEDDWDFLPPKKIKDPDASKPEDWDERAKIDDPTDSKPEDWDKPEHIPDPDAKKPEDWDEEMDGEWEPPVIQNPEYKGEWKPRQIDNPDYKGTWIHPEIDNPEYSPDPSIYAYDNFGVLGLDLWQVKSGTIFDNFLITNDEAYAEEFGNETWGVTKAAEKQMKDKQDEEQRTRRMMRTKMRMRRMRRTRRKMRRKMSPARPRTSCREACLQGWTEA
modifications: RED-NHS dye on lysines (in the MST experiment only)
As to B1, the dissociation constant Kd was about 104 nM.

The values above are taken from article PMC10076285, “Oncogenic CALR mutant C-terminus mediates dual binding to the thrombopoietin receptor triggering complex dimerization and activation” (Nature Communications, 2023).
